Results: patent US20110142849A1 (IRM, published 2011)

How the values were obtained:
[1] = biological target: T1, recombinant human Pcsk9 (aa 31-692) with C-terminal his6 tag (human, UniProt Q8NBP7 31-692); assay: SPR (Biacore S51), antibody captured by anti-mouse Fcγ, Pcsk9 in flow
T1 construct: In the TR-FRET assay it carried a fluorophore (hPcsk9-AF); also called hPCSK9; hPcsk9
Method: Binding studies of Pcsk9 to the LFU720 (2 μg/mL) were carried out by capturing the mouse antibody with a rabbit anti-mouse Fcγ antibody (Biacore #BR-1005-14) that was previously immobilized onto a Series S CM-5 Biacore sensor chip (certified) (Biacore #BR-1005-30). Covalent binding of the Fcγ capture antibody was done with the ‘Amine Coupling Kit’ (Biacore #BR-1000-50). The capture antibody (rabbit-anti-mouse) was attached to the EDCactivated dextran surface with a 50 μg/mL anti-Fcγ antibody solution in 10 mM sodium acetate, pH 5 (Biacore #BR-1003-51) at a flow rate of 10 μL/min. A range of concentrations of Pcsk9 from 0.5 μM to 7.8 nM (2 fold serial dilution) were flowed over the captured LFU720 chip in PBS plus 100 mM NaCl, 0.005% P20 (Biacore #BR-1000-54). The resulting sensorgrams were analyzed using the Biacore S51 Evaluation Software. Data from all concentrations was fitted globally to a 1:1 Langmuir model.
Target sequence in this assay (Q8NBP7 other isoform, or with tags, fused parts or gaps limits assumed, form in doubt): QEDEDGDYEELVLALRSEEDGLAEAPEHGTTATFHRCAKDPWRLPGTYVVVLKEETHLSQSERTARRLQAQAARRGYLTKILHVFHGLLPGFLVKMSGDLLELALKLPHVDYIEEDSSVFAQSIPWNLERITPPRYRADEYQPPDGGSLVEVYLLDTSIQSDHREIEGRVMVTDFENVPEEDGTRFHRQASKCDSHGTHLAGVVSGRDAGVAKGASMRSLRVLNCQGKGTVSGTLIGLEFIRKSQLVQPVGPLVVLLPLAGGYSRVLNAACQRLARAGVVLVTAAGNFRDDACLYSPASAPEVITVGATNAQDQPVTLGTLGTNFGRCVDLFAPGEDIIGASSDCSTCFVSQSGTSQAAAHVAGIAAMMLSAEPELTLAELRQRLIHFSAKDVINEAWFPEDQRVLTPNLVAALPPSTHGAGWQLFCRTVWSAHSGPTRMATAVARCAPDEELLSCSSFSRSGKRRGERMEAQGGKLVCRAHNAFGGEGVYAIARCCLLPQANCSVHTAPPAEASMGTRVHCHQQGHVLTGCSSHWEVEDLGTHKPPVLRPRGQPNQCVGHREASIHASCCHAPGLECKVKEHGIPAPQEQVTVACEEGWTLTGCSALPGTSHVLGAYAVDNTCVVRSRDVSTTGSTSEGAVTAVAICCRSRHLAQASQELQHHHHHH

H683X = biological target: T2, H683X (human, UniProt Q8NBP7); assay: co-immunoprecipitation with 5P20, blot
T2 construct: C-terminal truncation mutant, expressed protein; also called Pcsk9 C-term mutant H683X
T2 sequence (Q8NBP7 31-682 limits assumed): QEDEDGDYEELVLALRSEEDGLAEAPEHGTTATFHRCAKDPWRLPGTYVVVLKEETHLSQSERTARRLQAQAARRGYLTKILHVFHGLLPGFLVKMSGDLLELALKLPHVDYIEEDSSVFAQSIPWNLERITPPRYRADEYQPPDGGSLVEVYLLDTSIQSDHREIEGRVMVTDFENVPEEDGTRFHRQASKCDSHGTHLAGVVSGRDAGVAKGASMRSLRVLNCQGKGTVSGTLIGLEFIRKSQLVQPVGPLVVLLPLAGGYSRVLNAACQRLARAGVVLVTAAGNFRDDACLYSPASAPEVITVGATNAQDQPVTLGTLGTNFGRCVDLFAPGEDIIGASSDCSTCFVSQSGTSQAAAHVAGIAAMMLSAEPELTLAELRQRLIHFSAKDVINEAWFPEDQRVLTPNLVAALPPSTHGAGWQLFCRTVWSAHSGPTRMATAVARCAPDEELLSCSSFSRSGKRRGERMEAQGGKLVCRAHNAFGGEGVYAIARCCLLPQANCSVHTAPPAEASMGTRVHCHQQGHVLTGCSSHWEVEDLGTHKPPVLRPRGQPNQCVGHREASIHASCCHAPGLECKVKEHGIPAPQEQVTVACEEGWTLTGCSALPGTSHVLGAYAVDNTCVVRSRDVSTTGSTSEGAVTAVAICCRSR

R682X = biological target: T3, R682X (human, UniProt Q8NBP7); assay: co-immunoprecipitation with 5P20, blot
T3 construct: C-terminal truncation mutant, expressed protein; also called Pcsk9 C-term mutant R682X
T3 sequence (Q8NBP7 31-681 limits assumed): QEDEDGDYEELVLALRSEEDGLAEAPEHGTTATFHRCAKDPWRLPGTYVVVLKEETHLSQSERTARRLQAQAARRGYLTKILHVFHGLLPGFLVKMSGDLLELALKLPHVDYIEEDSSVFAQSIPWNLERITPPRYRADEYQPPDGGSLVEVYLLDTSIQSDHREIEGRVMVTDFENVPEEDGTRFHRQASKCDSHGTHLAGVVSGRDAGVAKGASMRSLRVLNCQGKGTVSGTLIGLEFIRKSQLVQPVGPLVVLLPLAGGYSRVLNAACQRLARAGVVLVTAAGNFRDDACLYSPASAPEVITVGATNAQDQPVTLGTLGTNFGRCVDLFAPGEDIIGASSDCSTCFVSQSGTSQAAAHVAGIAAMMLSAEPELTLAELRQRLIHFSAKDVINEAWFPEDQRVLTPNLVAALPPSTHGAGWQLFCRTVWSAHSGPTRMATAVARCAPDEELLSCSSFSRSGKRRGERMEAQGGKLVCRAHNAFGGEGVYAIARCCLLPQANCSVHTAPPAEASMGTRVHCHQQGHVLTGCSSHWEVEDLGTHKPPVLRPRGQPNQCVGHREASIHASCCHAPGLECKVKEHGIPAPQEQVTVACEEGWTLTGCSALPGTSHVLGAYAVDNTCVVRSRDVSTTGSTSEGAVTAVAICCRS

S681X = biological target: T4, S681X (human, UniProt Q8NBP7); assay: co-immunoprecipitation with 5P20, blot
T4 construct: C-terminal truncation mutant, expressed protein; also called Pcsk9 C-term mutant S681X
T4 sequence (Q8NBP7 31-680 limits assumed): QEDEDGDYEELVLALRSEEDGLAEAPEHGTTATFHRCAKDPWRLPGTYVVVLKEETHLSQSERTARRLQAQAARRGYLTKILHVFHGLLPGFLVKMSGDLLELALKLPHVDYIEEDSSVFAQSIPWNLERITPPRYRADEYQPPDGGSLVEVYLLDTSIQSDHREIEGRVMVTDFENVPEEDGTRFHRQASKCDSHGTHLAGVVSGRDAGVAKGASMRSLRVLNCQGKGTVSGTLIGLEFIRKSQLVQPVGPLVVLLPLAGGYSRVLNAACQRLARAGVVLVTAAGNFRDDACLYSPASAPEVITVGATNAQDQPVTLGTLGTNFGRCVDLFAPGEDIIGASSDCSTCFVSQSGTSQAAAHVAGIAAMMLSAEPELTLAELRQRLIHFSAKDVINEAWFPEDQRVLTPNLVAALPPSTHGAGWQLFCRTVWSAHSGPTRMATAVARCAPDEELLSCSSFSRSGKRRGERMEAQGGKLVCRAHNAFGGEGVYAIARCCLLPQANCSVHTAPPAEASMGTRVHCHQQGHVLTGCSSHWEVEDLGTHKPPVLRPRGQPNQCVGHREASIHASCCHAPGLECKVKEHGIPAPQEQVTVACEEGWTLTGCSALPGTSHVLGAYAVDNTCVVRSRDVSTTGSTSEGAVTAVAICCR

A685X = biological target: T5, A685X (human, UniProt Q8NBP7); assay: co-immunoprecipitation with 5P20, blot
T5 construct: C-terminal truncation mutant, expressed protein; also called C-term mutant A685X
T5 sequence (Q8NBP7 31-684 limits assumed): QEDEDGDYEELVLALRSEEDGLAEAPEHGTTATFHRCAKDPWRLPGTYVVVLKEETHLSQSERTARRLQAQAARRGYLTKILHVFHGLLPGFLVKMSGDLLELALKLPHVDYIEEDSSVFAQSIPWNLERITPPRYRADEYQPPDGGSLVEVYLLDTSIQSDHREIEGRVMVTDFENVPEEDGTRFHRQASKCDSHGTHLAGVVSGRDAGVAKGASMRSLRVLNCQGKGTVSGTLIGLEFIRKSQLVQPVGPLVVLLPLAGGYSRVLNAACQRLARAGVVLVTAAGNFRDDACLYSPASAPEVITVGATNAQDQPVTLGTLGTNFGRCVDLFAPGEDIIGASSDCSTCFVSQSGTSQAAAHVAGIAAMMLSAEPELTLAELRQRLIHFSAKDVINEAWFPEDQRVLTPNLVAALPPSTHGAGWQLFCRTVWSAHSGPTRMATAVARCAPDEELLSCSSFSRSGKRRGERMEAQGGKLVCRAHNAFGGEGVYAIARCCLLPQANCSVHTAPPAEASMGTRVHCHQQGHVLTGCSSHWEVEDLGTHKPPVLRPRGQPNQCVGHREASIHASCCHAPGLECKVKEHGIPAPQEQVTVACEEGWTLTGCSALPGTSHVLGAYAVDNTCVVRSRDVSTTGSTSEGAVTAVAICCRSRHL

hAgr2 = biological target: T6, hAgr2 (human, UniProt O95994); assay: specificity ELISA on coated antigen (88 ng per well), antibody at 2 µg/mL, ABS650
T6 construct: panel antigen of the specificity ELISA
T6 sequence (antigen, looked up): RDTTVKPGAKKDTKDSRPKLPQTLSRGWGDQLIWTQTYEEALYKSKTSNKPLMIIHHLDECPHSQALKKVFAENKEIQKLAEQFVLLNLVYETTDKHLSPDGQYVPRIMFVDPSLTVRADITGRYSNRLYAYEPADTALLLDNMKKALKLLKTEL
Method: For specificity ELISAs on purified human and mouse IgGs, a 384-well plate was coated with a panel of purified human or mouse antigens at 88 ng per well and incubated overnight at 4° C. The plate was blocked and washed as described above, then 22 μL of purified mouse or human anti-PCSK9 antibody diluted to 2 μg/mL in PBS was added to each well. The plate was incubated for 1 hr at 37° C. then washed with PBST. Anti-mouse Fc antibody (Jackson ImmunoResearch Labs #115-035-071) or anti-human kappa antibody (Sigma #A7164) conjugated to HRP was diluted 1:5000 in PBS (25 μL) and added to each well. The plate was incubated for 1 hr at room temperature, then washed and developed as described above.
In order to test whether the antigen specificity of the parental mouse antibody LFU720 was retained in the final Humaneered™ IgGs, LGT209, LGT210 and LGT211, binding of the antibodies to a panel of human and mouse antigens (as well as human PCSK9) was tested in an ELISA assay.

[2] = biological target: T7, cynomolgus monkey Pcsk9 with C-terminal his6 tag (cynomolgus monkey); assay: ELISA on cyno Pcsk9his, antibody 0.03 to 30 ng/ml, Abs 650nm
T7 chain: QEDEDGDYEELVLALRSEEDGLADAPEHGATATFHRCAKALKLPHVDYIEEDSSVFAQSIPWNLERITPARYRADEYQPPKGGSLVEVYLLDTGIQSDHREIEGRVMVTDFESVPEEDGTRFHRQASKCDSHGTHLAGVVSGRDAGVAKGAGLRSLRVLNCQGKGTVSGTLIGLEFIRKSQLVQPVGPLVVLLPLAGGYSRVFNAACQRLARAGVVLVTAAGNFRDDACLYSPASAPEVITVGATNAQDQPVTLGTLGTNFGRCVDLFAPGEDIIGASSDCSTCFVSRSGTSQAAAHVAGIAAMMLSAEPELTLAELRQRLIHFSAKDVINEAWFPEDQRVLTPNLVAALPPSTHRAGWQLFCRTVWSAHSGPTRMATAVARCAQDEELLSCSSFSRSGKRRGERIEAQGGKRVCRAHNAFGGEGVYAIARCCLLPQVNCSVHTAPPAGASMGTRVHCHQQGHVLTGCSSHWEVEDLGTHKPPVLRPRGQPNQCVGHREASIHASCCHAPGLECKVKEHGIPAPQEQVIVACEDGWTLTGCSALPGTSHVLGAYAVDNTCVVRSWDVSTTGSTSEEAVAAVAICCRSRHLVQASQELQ

[3] = biological target: T1, recombinant human Pcsk9 (aa 31-692) …; assay: Solution Equilibrium Titration (SET), MSD read-out
Method: The binding kinetics of IgGs and Fab fragments were analyzed using a Solution Equilibrium Titration (“SET”) assay. Briefly, serial dilutions of hPCSK9 were added to 60 pM IgG or Fab and incubated overnight. A 96-well Standard Bind microtiter plate (Meso Scale Discovery) was coated with 1 μg/ml hPCSK9 and incubated overnight, washed with PBS/0.05% (w/v) Tween 20, blocked with PBS/5% (w/v) BSA, and washed again. The antibody-antigen preparation was added to the PCSK9-coated Standard Bind plate and incubated for 30 min at room temperature. After three additional washing steps, Sulfo-Tag-labeled goat-anti-human-detection antibody (R32AJ-5, Meso Scale Discovery) was added and incubated one hour at room temperature. After washing the plate three times, Read Buffer (Meso Scale Discovery) was added and electrochemiluminescence (ECL) signals were measured by a Sector Imager 6000 (Meso Scale Discovery). ECL data were processed with the excel add-in XLfit 4.3.2 (ID Business Solutions) using the fitting model applicable for antibodies described in Piehler, et al., (1997) J Immunol Methods 201:189-206.

B1: NVP-LFU720 (antibody, V domains shown)
VH: EVQLQQSGAELMKPGASVKLSCTASGFNIKDMYMSWVRQRPEQGLEWIGRIDPANGHTNYDPKFQAKATITTDTSSKTAYLHLSSLTSEDTAVYYCARSYYYYAMDYWGQGTSVTVSS
VL: QIVLTQSPAIMSASPGEKVTMTCSASSSVSYMHWYQQKPGSSPRLWIYLTFNLASGVPARFSGSGSGTSYSLSISSMEAEDAATYYCLQWSSDPPTFGSGTKLEIK
notes: Murine anti-human Pcsk9 IgG1-kappa monoclonal antibody from a hybridoma; also called 5P20; NVP-LFU720-AX-1
Kd [1]: 0.2 nM
binding result (H683X): no binding
binding result (R682X): no binding
binding result (S681X): no binding
binding result (A685X): no binding
binding result (hAgr2): no binding (tested: 2 µg/mL)

B2: NVP-LGT211 (antibody, human IgG1, V domains shown)
VH: QVQLVQSGAEVKKPGASVKVSCKASGYTFSTMYMSWVRQAPGQGLEWMGRIDPANEHTNYAQKFQGRVTMTRDTSISTAYMELSRLTSDDTAVYYCARSYYYYAMDYWGQGTLVTVSS
VL: QIVLTQSPATLSVSPGERATLSCRASQSVSYMHWYQQKPGQAPRLLIYGVFRRATGIPDRFSGSGSGTDFTLTIGRLEPEDFAVYYCLQWSSDPPTFGQGTKLEIKR
notes: Silent human IgG1 kappa; also called pSR74 (Vh) + pJG10 (Vk); pSR074 + pJG10
EC50 (read off the curve) [2]: ~2 ng/mL
Kd [3]: 0.19 nM
binding result (hAgr2): no binding (tested: 2 µg/mL)
